US20160367664A1 (AGENCY FOR SCIENCE TECHNOLOGY AND RESEARCH, published 2016)

Columns and labels:
[1] = biological target: T1, recombinant human interleukin 2 receptor β (IL-2Rβ; CD122) (human, UniProt P14784 27-240); experiment: SPR, recombinant receptor chain immobilised on the chip, antibody flowed over
T1 construct: Recombinant chain immobilised on the SPR chip and used as antigen in the ELISAs; also called human IL-2Rβ
T1 sequence (looked up): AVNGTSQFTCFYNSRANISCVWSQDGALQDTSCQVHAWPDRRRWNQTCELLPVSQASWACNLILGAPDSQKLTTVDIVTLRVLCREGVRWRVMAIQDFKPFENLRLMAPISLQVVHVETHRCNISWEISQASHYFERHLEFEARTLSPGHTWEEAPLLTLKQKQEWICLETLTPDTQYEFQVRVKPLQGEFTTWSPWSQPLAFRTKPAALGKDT

[2] = biological target: T2, recombinant human common γ chain (γc; CD132) (human, UniProt P31785 23-262); experiment: as above
T2 construct: Recombinant chain immobilised on the SPR chip and used as antigen in the ELISAs; also called IL-2Rγc; IL-2Rγ
T2 sequence (looked up): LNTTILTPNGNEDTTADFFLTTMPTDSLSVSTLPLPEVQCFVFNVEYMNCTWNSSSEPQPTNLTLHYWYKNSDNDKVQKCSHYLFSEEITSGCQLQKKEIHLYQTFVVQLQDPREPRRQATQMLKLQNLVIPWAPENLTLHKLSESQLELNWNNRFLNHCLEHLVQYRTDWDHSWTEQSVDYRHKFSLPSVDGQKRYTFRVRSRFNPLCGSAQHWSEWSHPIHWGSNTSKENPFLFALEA

B1: bispecific anti-IL-2Rβ/γc antibody P2D12/P1A3 (bispecific antibody)
chain 1: HVQLVETGGGLVQPGGSLRLSCAASGFTFSSYAMSWVRQAPGKGLEWVSAISGSGGSTYYADSVKGRFTISRDNSKNTLYLQMNSLRAEDTAVYYCARDLGDYWGQGTLVTVSSGGGGSGGGGSGGGGSDIQLTQSPSSLSASVGDRVTITCQASQDIGNYLNWYQLKPGKAPKLLIYDASNLETGVPSRFSGSGSGTDFTFTISSLQPEDIATYYCLQLYDYPLTFGGGTKVEIK
chain 2: not shown
Kd [1]: 181 nM | Kd [2]: 78.7 nM
